Results: US20160272995A1, “MANIPULATION OF PLASMODESMAL CONNECTIVITY TO IMPROVE PLANT YIELD AND FITNESS” (UNIVERSITY OF DELAWARE, priority 2013, published 2016)

Tests used:
[1] = test system: Pseudomonads; conditions: Arabidopsis plants; cited from earlier work
[2] = test system: Arabidopsis thaliana; assay: Drought test: 2 weeks water withdrawal, then rewatering; format: in vivo; conditions: rewatering after 2 weeks water withdrawal
Description: All plant lines were grown for 2 weeks with water prior to the 2 week water withdrawal. (a) Plants having a severe knock down of PDLP5 (pdlp5-1) and PDLP5-m5 plants bolt faster than plants overexpressing PDLP5 (OX) and wild type (WT) plants. (b) Plants overexpressing PDLP5 (OX) revive 3 days post rewatering (DPR). (c) Plants overexpressing PDLP5 (OX) fully recover and 10 days post rewatering (DPR); wild type (WT) plants are dead, and PDLP5-m5 plants continue to survive.
(a) Plants overexpressing PDLP5 (OX), wild type (WT) plants, plants having a severe knock down of PDLP5 (pdlp5-1), and three different PDLP5-m5 plants (T3-4-2, T2-6, and T2-26) which were all grown a different number of days as required to reach same rosette size before water withdrawal. Plants having the same rosette size are referred to as “same day bolting samples.” (b) Same day bolting samples of plants overexpressing PDLP5 (OX), wild type (WT) plants, plants having a severe knock down of PDLP5 (pdlp5-1), and three different PDLP5-m5 plants (T3-4-2, T2-6, and T2-26) at the end of a 2 week water withdrawal. (c) Same day bolting samples of plants overexpressing PDLP5 (OX) and two different PDLP5-m5 plants (T3-4-2 and T2-26) recover fully 3 days post rewatering.
Transgenic T1 plants were selected on basta+plates and homozygous T2 lines were identified by segregation test on T3 plants. For the drought test, homozygous lines were grown in soil for the 2 weeks with watering followed by 2 weeks of water withdrawal. Tolerance to drought stress of the PDLP5-m5 was assessed by the plant growth or death upon resuming watering.
PDLP5-m5 plants were evaluated by exposing them to drought conditions. PDLP-m5 plants were grown under normal conditions with water, water was withdrawn for 2 weeks, and rewatering was commenced. Plants having a severe knock down of PDLP5 (pdlp5-1) and PDLP5-m5 plants bolt faster than plants overexpressing PDLP5 and wild type plants (FIG. 13A). […] The early bolting of the PDLP5-m5 plants appeared to affect plant revival. Therefore, the experiment was repeated using same day bolting samples. Briefly, plants having the same rosette size were used, regardless of the number of days required to achieve that rosette size (FIG. 14A).

[3] = test system: lateral root primordia (LRP); assay: LRP progression after gravitropic stimulus; format: in vivo, Arabidopsis thaliana; conditions: by 48 hpg
Description: (A) Lateral root development in wild type (WT) plants, plants having a severe knock down of PDLP5 (pdlp5-1), and plants overexpressing PDLP5 (PDLPOE) expressing DR5:GUS. Arrowheads indicate tertiary roots. (B) Quantification of total lateral root numbers (both emerged and unemerged secondary [2°], tertiary [3°], and quaternary [4°] roots). n≧30 per seedling set. Bars, standard deviation. Stars, significance determined by student T-test (P<0.01). (C) A diagram depicting several stages of LRP emergence. (D) Percent distribution of LRP stages, recorded at root bend at indicated time points following gravistimulation at 3 dpg. n≧20 seedlings per set. […]
GUS solution (100 mM sodium phosphate buffer, pH 7.0, 10 mM EDTA, 0.5 mM each potassium ferrocyanide and potassium ferricyanide, 1.24 mM X-Gluc, and 0.1% Triton X-100) was vacuum-infiltrated into plant tissue for five minutes, then removed from vacuum and incubated in 37° C. for 3 to 12 hrs, followed by a series of ethanol washes. […] LRP were quantified by counting both the emerged LR and unemerged LR, as determined by DRS::GUS staining of the primordia, under a dissecting microscope (1.2× magnification). LRP stages were determined by examining ethanol-cleared, GUS-stained tissue using 40× water lens.

B1: PDLP5OE: Wild-type A. thaliana PDLP5 protein (SEQ ID NO:4) constitutively overexpressed in plants under the 35S promoter (protein, listed as Arabidopsis thaliana)
chain: MIKTKTTSLLCFLLTAVILMNPSSSSPTDNYIYAVCSPAKFSPSSGYETNLNSLLSSFVTSTAQTRYANFTVPTGKPEPTVTVYGIYQCRGDLDPTACSTCVSSAVAQVGALCSNSYSGFLQMENCLIRYDNKSFLGVQDKTLILNKCGQPMEFNDQDALTKASDVIGSLGTGDGSYRTGGNGNVQGVAQCSGDLSTSQCQDCLSDAIGRLKSDCGMAQGGYVYLSKCYARFSVGGSHARQTPGPNFGHEGEKGNKDDNGVGKTLAIIIGIVTLIILLVVFLAFVGKCCRKLQDEKWCK
Q: For B1, which immunity to infection [1] is on record?
A: Its immunity to infection is “innate immunity to Pseudomonads infection”.

Q: What about the outcome upon rewatering [2] of the same molecule?
A: Its outcome upon rewatering is “recovered after rewatering”.

Q: What about the LRP emergence [3] of the same molecule?
A: The LRP emergence was “none had yet emerged”.
